Laboratory results from patent publication US9307782B2, “Mannanase produced from Cellulosimicrobium sp. strain HY-13” (Korea Research Institute of Bioscience and Biotechnology, priority 2011, dated 2016).
Marks after values point to notes of the source that are not given here. Values belong to the molecule of their own block, whether it stands above or below them.

How the values were obtained:
mannanase = experiment: Effect of metal ions and chemicals on mannanase activity; type: biochemical, Cellulosimicrobium sp. HY-13; conditions: for increase of catalytic activity of the mannanase / effect on the enzyme activity: pH 6.0, 50° C.
[1] = Analysis of degradation product (HPLC, LC-MS/MS); type: biochemical; conditions: substrate Ivory nut mannan; LC area %
Protocol: […] HPLC (high performance liquid chromatography) was performed by using Finnigan Surveyor™ Modular HPLC systems (Thermo Electron Co.) equipped with Asahipak NH2P-50 2D column (5 μm, 2.0×150 mm, Shodex) ran by Xcalibur software (version 1.3 SP2, Thermo Electron Co.). Elution buffer A (0.05% pomalus acid/sterilized water) and elution buffer B (acetonitrile and methanol (7:3) containing 0.05% pomalus acid) were used as moving phases. LC-MS/MS (liquid chromatography/tandem mass spectrometry) was performed by using Finnigan LCQ Advantage MAX ion trap mass spectrometer (Thermo Electron Co.).

[2] = Analysis of degradation product (HPLC, LC-MS/MS); type: biochemical; conditions: 1 μg recombinant mannanase, pH 6.0, 30° C., 12 hours, LC area %
Protocol: Mannooligomer (M2˜M5, 1 mg/100 μl each) and locust bean gum (1.4 mg/100 μl) were reacted in 50 mM sodium phosphate buffer (pH 6.0) containing 1 μg of the recombinant mannanase at 30° C. for 12 hours, followed by investigation of the hydrolysate. HPLC (high performance liquid chromatography) was performed by using Finnigan Surveyor™ Modular HPLC systems (Thermo Electron Co.) equipped with Asahipak NH2P-50 2D column (5 μm, 2.0×150 mm, Shodex) ran by Xcalibur software (version 1.3 SP2, Thermo Electron Co.). Elution buffer A (0.05% pomalus acid/sterilized water) and elution buffer B (acetonitrile and methanol (7:3) containing 0.05% pomalus acid) were used as moving phases. LC-MS/MS (liquid chromatography/tandem mass spectrometry) was performed by using Finnigan LCQ Advantage MAX ion trap mass spectrometer (Thermo Electron Co.).

[3] = Specific activity of mannanase (DNS reducing sugar assay); type: biochemical; conditions: pH 6.0, 50° C., 15 minutes
Protocol: To compare the mannanase activity to different matrixes, locust bean gum, ivory nut mannan and guar gum were used as matrixes and the activity of the purified mannanase to those matrixes were investigated.
The activity of β-1,4-mannanase was investigated by measuring the reduced amount of glucose isolated from locust bean gum using 3,5-dinitrosalicylic acid (DNS). At this time, D-mannose was used as a standard material. 0.5 Ml of a standard mixture composed of 0.5% locust bean gum was mixed with 0.05 Ml of an enzyme aqueous solution, followed by inducing biodegradation reaction in 50 mM sodium phosphate buffer (pH 6.0) at 50° C. for 15 minutes. The activity of the recombinated mannanase (1 IU) to the mannan substrate was defined as the amount of the protein necessary for the secretion of 1 μmol reducing sugar under the standard analysis condition. Chromogenic PNP-sugar derivative was used to measure another degrading activity of the said recombinated enzyme. The enzyme activity of the recombinated mannanase to the chromogenic substrate was measured under the same conditions as set for the analysis of β-1,4-mannanase activity. The activity of the recombinated mannanase (1 IU) to the PNP-sugar derivative was defined as the amount of the protein necessary for the production of 1 μmol PNP under the standard analysis condition.

[4] = metal ions 1 mM, 50 mM sodium phosphate buffer (pH 6.0), 50° C., 10 minutes, None = 100.0
[5] = metal ions 1 mM, chemicals 5 mM, 10 minutes
[6] = chemicals 5 mM, 50 mM sodium phosphate buffer (pH 6.0), 50° C., 10 minutes, None = 100.0
[7] = detergent 0.5%, 50 mM sodium phosphate buffer (pH 6.0), 50° C., 10 minutes, None = 100.0

Molecule: [Ba+2].[Cl-].[Cl-] [BaCl2]
- Relative activity (%) (mannanase; [4]): 118.5%
- increase of catalytic activity of the mannanase (mannanase; metal ions 1 mM, 10 minutes): approximately 1.2 fold

Molecule: [Ca+2].[Cl-].[Cl-] [CaCl2]
- Relative activity (%) (mannanase; [4]): 146.9%
- increase of catalytic activity of the mannanase (mannanase; metal ions 1 mM, 10 minutes): at least 1.4 fold

Molecule: [Cl-].[Cl-].[Co+2] [CoCl2]
- Relative activity (%) (mannanase; pH 6): 111.9%

Molecule: [Cl][Cu][Cl] [CuCl2]
- Relative activity (%) (mannanase; [4]): 16.7%

Molecule: O=C(O)CN(CCN(CC(=O)O)CC(=O)O)CC(=O)O [EDTA]
- Relative activity (%) (mannanase; pH 6): 19.0%

Molecule: O=S(=O)([O-])[O-].[Fe+2] [FeSO4]
- Relative activity (%) (mannanase; [4]): 42.2%

Molecule: [Cl][Hg][Cl] [HgCl2]
- effect on the enzyme activity (mannanase; [5]): inactivated
- Relative activity (%) (mannanase; [4]): 0%

Molecule: O=S(=O)([O-])[O-].[Mg+2] [MgSO4]
- effect on the enzyme activity (mannanase; [5]): no effect
- Relative activity (%) (mannanase; [4]): 99.9%

Molecule: [Cl][Mn][Cl] [MnCl2]
- Relative activity (%) (mannanase; [4]): 125.2%
- increase of catalytic activity of the mannanase (mannanase; metal ions 1 mM, 10 minutes): approximately 1.2 fold

- Relative activity (%) (mannanase; [6]): 0%
- effect on the enzyme activity (mannanase; [5]): inactivated
Molecule: O=C1CCC(=O)N1Br [N-Bromosuccinimide]

- Relative activity (%) (mannanase; [6]): 121.4%
Molecule: CCN1C(=O)C=CC1=O [N-Ethylmaleimide]

Molecule: O=S(=O)([O-])[O-].[Ni+2] [NiSO4]
- Relative activity (%) (mannanase; [4]): 67.1%

Molecule: NC(=O)CI [Odoacetamide]
- Relative activity (%) (mannanase; [6]): 113.3%

Molecule: [Cl][Sn][Cl] [SnCl2]
- effect on the enzyme activity (mannanase; [5]): no effect
- Relative activity (%) (mannanase; [4]): 103.7%

- Relative activity (%) (mannanase; [7]): 103.5%
Molecule: CCCCCCCC/C=C\CCCCCCCC(=O)OCCOCC(OCCO)C1OCC(OCCO)C1OCCO (stereo not drawn) [Tween 80]

Molecule: O=S(=O)([O-])[O-].[Zn+2] [ZnSO4]
- Relative activity (%) (mannanase; [4]): 47.4%

- Relative activity (%) (mannanase; [7]): 98.9%
Molecule: Triton X-100

B1: rManH: Recombinant GH5 β-1,4-mannanase of Cellulosimicrobium sp. HY-13 produced in E. coli; SEQ. ID. NO: 1; approximately 44 kDa (protein)
chain: MRRLFAIVLGAVLALLAVPALAQGASVASDGFSVQDGRIYDANGNRFVPVGVNHAHAWYPSQTQSFADIRAAGANTVRVVLSGGRYGTSSAADVSAVVERCKQNQLVCILENHDTTGYGEDGSARSLASAAQYWTSIASVLRGQERYVMINIGNEPFGNSGFQSWTTDTIAAIRTLRAAGLDHTLVVDAPNWGQDWSFTMRDNAPTVAAADGNVVFSVHMYGVFDTGAEVRAYLDSFTSRGLPIMVGEFGDNHSDGNPDEATIMSYTRSQGIGMLGWSWSGNGGGVEYLDMVNGFSASSLTPWGQRFVHGADGLRARNAPAASVYGGDGGDGDGGAGTAPNGYPYCASASSDPDGDGWGWESSASCVVRGSSADTGSGGGSGSGSTAPNGYPYCASASSDPDGDGWGWESSASCVVRGSSADR
modifications: cellulosimicrobium
notes: Recombinant GH5 β-1,4-mannanase of Cellulosimicrobium sp; HY-13 produced in E. coli; ID; NO: 1; approximately 44 kDa
- Composition (%) of products formed by hydrolysis reaction: M1 [1]: 3.3%
- Composition (%) of products formed by hydrolysis reaction: M2 [1]: 17.5%
- Composition (%) of products formed by hydrolysis reaction: M3 [1]: 13.9%
- Composition (%) of products formed by hydrolysis reaction: M4 [1]: 25.2%
- Composition (%) of products formed by hydrolysis reaction: M5 [1]: 19.7%
- Composition (%) of products formed by hydrolysis reaction: M6 [1]: 12.9%
- Composition (%) of products formed by hydrolysis reaction: M7 [1]: 7.5%
- Composition (%) of products formed by hydrolysis reaction: M8 [1]: 2.9%
- Composition (%) of products formed by hydrolysis reaction: M1 ([2]; substrate Locust bean gum): 1.1%
- Composition (%) of products formed by hydrolysis reaction: M2 ([2]; substrate Locust bean gum): 6.4%
- Composition (%) of products formed by hydrolysis reaction: M3 ([2]; substrate Locust bean gum): 1.5%
- Composition (%) of products formed by hydrolysis reaction: M4 ([2]; substrate Locust bean gum): 7.4%
- Composition (%) of products formed by hydrolysis reaction: M5 ([2]; substrate Locust bean gum): 44.2%
- Composition (%) of products formed by hydrolysis reaction: M6 ([2]; substrate Locust bean gum): 16.1%
- Composition (%) of products formed by hydrolysis reaction: M7 ([2]; substrate Locust bean gum): 21.4%
- Composition (%) of products formed by hydrolysis reaction: M8 ([2]; substrate Locust bean gum): 1.9%
- Composition (%) of products formed by hydrolysis reaction: M2 ([2]; substrate M2): 100.0%
- Composition (%) of products formed by hydrolysis reaction: M1 ([2]; substrate M3): 3.5%
- Composition (%) of products formed by hydrolysis reaction: M2 ([2]; substrate M3): 60.1%
- Composition (%) of products formed by hydrolysis reaction: M3 ([2]; substrate M3): 31.6%
- Composition (%) of products formed by hydrolysis reaction: M4 ([2]; substrate M3): 4.0%
- Composition (%) of products formed by hydrolysis reaction: M5 ([2]; substrate M3): 0.8%
- Composition (%) of products formed by hydrolysis reaction: M1 ([2]; substrate M4): 3.9%
- Composition (%) of products formed by hydrolysis reaction: M2 ([2]; substrate M4): 55.5%
- Composition (%) of products formed by hydrolysis reaction: M3 ([2]; substrate M4): 28.8%
- Composition (%) of products formed by hydrolysis reaction: M4 ([2]; substrate M4): 9.9%
- Composition (%) of products formed by hydrolysis reaction: M5 ([2]; substrate M4): 1.9%
- Composition (%) of products formed by hydrolysis reaction: M1 ([2]; substrate M5): 4.1%
- Composition (%) of products formed by hydrolysis reaction: M2 ([2]; substrate M5): 46.9%
- Composition (%) of products formed by hydrolysis reaction: M3 ([2]; substrate M5): 21.8%
- Composition (%) of products formed by hydrolysis reaction: M4 ([2]; substrate M5): 16.6%
- Composition (%) of products formed by hydrolysis reaction: M5 ([2]; substrate M5): 7.9%
- Composition (%) of products formed by hydrolysis reaction: M6 ([2]; substrate M5): 2.8%
- Composition (%) of products formed by hydrolysis reaction: M7 ([2]; substrate M5): 0.9%
- Specific activity ([3]; substrate Guar gum): 967 ± 18 IU mg^−1
- Specific activity ([3]; substrate Insoluble ivory nut mannan): 14,711 ± 183 IU mg^−1
- Specific activity ([3]; substrate Locust bean gum): 8,498 ± 105 IU mg^−1
- Specific activity ([3]; toward insoluble ivory nut mannan): 14,711^c IU/mg
- Specific activity ([3]; toward locust bean gum): 8,498^d IU/mg
